Experimental data published in patent US20250382602.
Numbering of substitutions follows the chain as printed. Like-named read-outs stand apart in the source and are kept apart here.

Legend:
[1] = molecular target: T1, Dda 1993 K358E K358E (Enterobacteria phage T4) (UniProt P32270); settings: nanopore translocation, FLO-MIN106; background mutations not given
T1 sequence: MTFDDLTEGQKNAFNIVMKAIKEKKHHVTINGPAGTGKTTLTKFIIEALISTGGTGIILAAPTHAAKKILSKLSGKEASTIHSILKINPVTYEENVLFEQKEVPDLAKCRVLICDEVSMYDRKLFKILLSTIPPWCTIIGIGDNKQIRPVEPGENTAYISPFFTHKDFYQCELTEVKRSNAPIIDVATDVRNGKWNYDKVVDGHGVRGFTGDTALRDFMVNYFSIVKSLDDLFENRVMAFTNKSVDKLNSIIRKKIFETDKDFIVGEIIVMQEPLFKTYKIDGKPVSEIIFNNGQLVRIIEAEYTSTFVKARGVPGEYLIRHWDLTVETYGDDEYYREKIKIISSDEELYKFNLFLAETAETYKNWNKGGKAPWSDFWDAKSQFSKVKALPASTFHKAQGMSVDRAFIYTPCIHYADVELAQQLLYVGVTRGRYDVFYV

[2] = molecular target: T2, Dda 1993 K358I K358I (Enterobacteria phage T4) (UniProt P32270); settings: nanopore translocation, FLO-MIN106; background mutations not given
T2 sequence: T1 sequence with E358I

[3] = molecular target: T3, Dda 1993 K358L K358L (Enterobacteria phage T4) (UniProt P32270); settings: nanopore translocation, FLO-MIN106; background mutations not given
T3 sequence: T1 sequence with E358L

[4] = molecular target: T4, Dda 1993 K358M K358M (Enterobacteria phage T4) (UniProt P32270); settings: nanopore translocation, FLO-MIN106; background mutations not given
T4 sequence: T1 sequence with E358M

[5] = molecular target: T5, Dda 1993 K358F K358F (Enterobacteria phage T4) (UniProt P32270); settings: nanopore translocation, FLO-MIN112; background mutations not given
T5 sequence: T1 sequence with E358F

[6] = molecular target: T4, Dda 1993 K358M K358M (Enterobacteria phage T4); settings: nanopore translocation, FLO-MIN112; background mutations not given
[7] = molecular target: T6, Dda 1993 Y350I Y350I (Enterobacteria phage T4) (UniProt P32270); settings: nanopore translocation, FLO-MIN112; background mutations not given
T6 sequence: T1 sequence with Y350I, E358K

Substance “barcoded 3.6 kb DNA analyte ligated to sequencing Y adaptor” has an activity (bps speed delta vs control) [1] of -53.9, an activity (bps speed delta vs control) [2] of -40.2 and an activity (bps speed delta vs control) [3] of -42.7. It also gave an activity (bps speed delta vs control) [4] of -48.6, an activity (bps speed delta vs control) [5] of -10.9 and an activity (bps speed delta vs control) [6] of -11.8. For the same substance, the activity (bps speed delta vs control) [7] was 2.22.
